Measured values: the DeepSol protein solubility set

assay: soluble on expression in E. coli; label from the status in PepcDB or PDB records

**Q.** Which “soluble on expression in E. coli” value does the source give for “MSLHKRMKKKLILAAAGAMAVFSLAACSSGSKDIATMKGSTITVDDFYNQIKEQSTSQQAFSQMVIYKVFEEKYGDKVTDKDIQKNFDEAKEQVEAQGGKFSDALKQAGLTEKTFKKQLKQRAAYDAGLKAHLKITDEDLKTAWASFHPEVEAQIIQVASEDDAKAVKKEITDGGDFTKIAKEKSTDTATKKDGGKIKFDSQATTVPAEVKEAAFKLKDGEVSEPIAATNMQTYQTTYYVVKMTKNKAKGNDMKPYEKEIKKIAEETKLADQTFVSKVISDELKAANVKIKDDAFKNALAGYMQTESSSASSEKKESKSSDSKTSDTKTSDSEKATDSSSKTTESSSKEGGSHHHHHH” here?
**A.** Its value is “soluble”.

**Q.** With “MSLHSDILVVGAGPAGLSFAAELAGSGLKVTLIERSPLTVLQNPPYDGREIALTHFSREIMQRLGMWDKIPENEIYPLRDAKVLNGRSDYQLHFPQPTEARGEPADCLGYLISNHNIRRAAYEVVSQLDNVSILTDTAVKEVKTSDNEAQVFLENGDILTARLLLAADSRFSQTRRQLGISSDMHDYSRTMFVCRMKHTLSNQHTAYECFHYGRTIALLPLEKRLTNTVITVDTDKINSVQNLSPEELAASVKEQLKGRLGDMELVSSIHHYPLVGMIAKRFYGKRSALIGDAAVGMHPVTAHGFNLGLSSADILAKLILEAEQRGQDIGAASLLEKYSSKHMLHAHPLYHGTNMMLKLFTNETAPAKLLRGLVLRAGNNFPPLKKLITKQLTGLEHHHHHH” as the sequence, how does the “soluble on expression in E. coli” value read?
**A.** The value was “soluble”.

**Q.** For “MSLIASIGELLIDLISVEEGDLKDVRLFEKHPGGAPANVAVGVSRLGVKSSLISKVGNDPFGEYLIEELSKENVDTRGIVKDEKKHTGIVFVQLKGASPSFLLYDDVAYFNMTLNDINWDIVEEAKIVNFGSVILARNPSRETVMKVIKKIKGSSLIAFDVNLRLDLWRGQEEEMIKVLEESIKLADIVKASEEEVLYLENQGVEVKGSMLTAITLGPKGCRLIKNETVVDVPSYNVNPLDTTGAGDAFMAALLVGILKLKGLDLLKLGKFANLVAALSTQKRGAWSTPRKDELLKYKEAREVLAEGHHHHHH”, which “soluble on expression in E. coli” value is on record?
**A.** The value was “soluble”.

**Q.** Which “soluble on expression in E. coli” value does the source give for “MSLIDFHFHAPVKEFLDFLGEFGEPAIKYFNAKVEVKGLKETLDYYESFGIKRFVVLPIDSTTFLGRRIPNQVINLDDRIVKFISVDPSKPNADEELKRSIKEFEPVGVKLHPQLQGFHPLDERALKIYEIIDNHGLIVVFHTGTSGIGAGVKSSIRLDYGRPIYFDEIAVRFQNMKIILAHFGWPWTEEAIAIALHKPNVYLDLSGWAPRYIPQVIWSNAKRLSDKLLFGSDFPLIRPERWLEEFKSVNLSQDIKDKILKHNAEKLVKKSEGHHHHHH” here?
**A.** Its value is “not soluble”.

**Q.** Which “soluble on expression in E. coli” value does the source give for “MSLIDIHSHIVFDVDDGPKSREESKALLAESYRQGVRTIVSTSHRRKGMFETPEEKIAESFLQVREIAKEVADDLVIAYGAEIYYTPDVLDKLGKKRIPTLNDSRYALIEFSMNTPYRDIHSALSKILMLGITPVIAHIERYDALGNNEKRVRELIDMGCYTQVNSSHVLKPKLFGERYKFMKKRAQYFLEQTLVHVIASDMHNLDGRPPHMAEAYDFVTQKYGEAKAQELFIDNPRKIIMDQLIEGGSHHHHHH” here?
**A.** Its value is “soluble”.

**Q.** Which “soluble on expression in E. coli” value does the source give for “MSLIISISNLSPKSNRSQTKDSQISKWSYFSDCILRSTGFPAEWIEKLCFHKTTTMFDLCYRTEQSLNELVERLKTLEQTCHIPSNARQDWQRIRKLVGKRKKVTDEFIHLMEQKGFDQSLTQEIESYERKRRLQEKNWTKARESFEAELAEKQLFLQEIYKNPRLQEAIFQQSPSMYKNAVVPYVHSSLQKRNTNIKRIERQLISYLQRLCTKNETTSFFGPIQYGVLTSEQQDIEYNFNQKETERRAFMPYWSIKVLAAQMKECDVFFPYLNVKLSYQYTKTGDSIHSPILEKMVKFPKPYADIIKHLTYENQSIEQLAKKLSQPVAWLAKKLRLLEKKRLILIEIPLSITEPDSLNELRSWILKIKDVEHPDLSLWQERLEWLWKVKQAYPYMTLGQKQELFHKLESTFTEWTGEQPRRLGGEIYADRNLLYEECHGPLNNIKIGGSIKHVLKQDVPKWLSICAKHGEQRRKQEQALAQEIFKMMYPNEDSVPFLKFVHDLSNHPDVHTWEKRWQSIKTEIEEAITHEVASNPKSVVHLSLDYQDFDRDMAWLTSPDLMIAKKDDDSYQVILGEIHDTIMVWGWALQFHPEKDRVNEQLVKKIQKSTQHLRMLNMLSSKRFKIVPFEYPGTTIQMNSFSNSPNEKIPLSQLKVTYTKEGLALTLPDHEEVFYTYNGELNTMVHSFFSLPRAVSFSIRTGESTPRLMLGDLVVQRAKWHISKQDVWSKKHTGSSIELFYEAYRFHLKESLPKEGFAKLPGQPKPVYVNFTSYFLIEMLEGLWPDGENCTFSEMLPNLSELWLSKEDQKTHTAEIRLSYFVERSEGHHHHHH” here?
**A.** Its value is “soluble”.

**Q.** Which “soluble on expression in E. coli” value does the source give for “MSLIITGVDVHVVNLPLTSPFRSSFETKTGETRTVVRVTTDDGHVGWGETMWGSPVARLTEQLSSSLIGKSPFALEEFHATHTMVPFFYGYIGYAALAGLDVACWDLMGKITGRPLTDLIGGRVRDTVPITALITRADAPDAPPADLPVALAEHAAKVVAIGGFTAVKLKGTKDVDGDVKIMRALRAVLPDVELRVDPNAAWSVPESIRAGLRMEELDLEYLEDPCWGIDGMARVREKIRIPLCTNMCVVAFEDFAPAMRLGAVDVIHGDVYKWGGEGHHHHHH” here?
**A.** Its value is “not soluble”.

**Q.** Which “soluble on expression in E. coli” value does the source give for “MSLIKGKELLGRPVVAVSNGAQVDNVHDVVFDHQGNRVLALLVEEGGWLRAAKAVPFGRVQSIGEKAVMIATPEDVVNTGRDPVLKEALAGKTNLIGMTLLTTDGQTLGKITDVYFDERSGQVEGYEASGGLFADMTNGRTFIPAPQSIQIGKDSAIVPAGVAAAMREQAPGGIRGAFHTAGKSLGGAVQGAADSVRGAYEDTSRSVRENYEQVSANVAEAAREGQQQARAAASDLRSRVQGGAEDLREASAERQKDFVVGKVAGQDVRTDNGVLIVAKGTTIDEGQARFAEQNGALPALLAAAAGGSVREGVRDLLADPSSDAGDVVGRRVQEDVRSSVGSLIAVQGQIVTPEVAERARELGLEERLVAATQAPGLQTPPVPDRAELREQASDLRDNLADGLSNVSQNVSQGANELLGRAKSWLGERREDLEDSLDRQEQEAYQARIRDALGRPVTRAVLTRTDRVILQPGELVTHAALDEARAAGVLGLLLDSVDGGEGHHHHHH” here?
**A.** Its value is “soluble”.

**Q.** Which “soluble on expression in E. coli” value does the source give for “MSLIKVPCMQITNMHCSGQTVSLAAGDYHATIVTVGAGLAELTFQGCHLVIPHKPEEMPLAHLGKVLIPWPNRIANGCYRYQGQEYQLPINEHSSKAAIHGLLAWRDWQISELTATSVTLTAFLPPSYGYPFMLASQVVYSLNAHTGLSVEIASQNIGTVAAPYGVGIHPYLTCNLTSVDEYLFQLPANQVYAVDEHANPTTLHHVDELDLNFTQAKKIAATKIDHTFKTANDLWEMTITHPQQALSVSLCSDQLWVQVYSGEKLQRQGLAVEPMSCPPNAFNSGIDLLLLESGKPHRLFFNIYGQRKMGHHHHHHSH” here?
**A.** Its value is “not soluble”.

**Q.** Which “soluble on expression in E. coli” value does the source give for “MSLILENEVIWDPERYVLGNYIQNKINDVFLKTIHSKLSGNILDIGCGDGHYTSLLAGKVKHGQILGIDSSEQMIMHANQQWARTGLSFEVHNIEEFHQPQSFDLVLSFWCLHWTNIHISFPNIFHLLKREGKLYAVMSSFSDHSILQTWKELAKQNLYRDLTKQYISPINEQYFYGVINLLNRLPFKRIKLDLKTCRVHLPHIDYYKNLLLTMPFIKRVPSEITDTLVEDMLKAFQTICDRKYGGELYYETRPIFLEAIKEGHHHHHH” here?
**A.** Its value is “not soluble”.

**Q.** With “MSLIMSEPPQLTTPDDKDVENRKHSSTYSISNLLLEKKESSPSGSSSEDDSASSNDDDQRSPSATSSFIFPPASSSSSSESATSPTQIMAQLMANGGAVDPGLQAYFFLLQSQLNSQSMMNRVTQENVSRALTSFNLLNNLPGALPSLSPMGRLQHSMQLSPNSLNMQKKQSRPTFTGHQIYQLERKFEQTKYLAGADRAQLAQELNMSESQVKVWFQNRRTKWRKKEAADNALVKRGASGDKSPCSLSPFLSAGI” as the sequence, how does the “soluble on expression in E. coli” value read?
**A.** The value was “not soluble”.

**Q.** For “MSLIREAQRSELPAILELWLESTTWGHPFIKANYWRDCIPLVRDAYLANAQNWVWEEDGKLLGFVSIMEGRFLAAMFVAPKAVRRGIGKALMQYVQQRHPHLMLEVYQKNQPAINFYQAQGFHIVDCAWQDETQLPTWIMSWPVVQTLEGGSHHHHHH”, which “soluble on expression in E. coli” value is on record?
**A.** Its value is “soluble”.

**Q.** With “MSLITDGIMHKVREVYQLLRKEPGIIVGVSNRHVHLSREDLETLFGEGYELTPVKELRQPGQYAAKETVTIVGPKGAIENVRVLGPVRKETQVEISRTDAFRLGVRPPVRDSGDLEGTPGIVIIGPNGILVKEKGVIIAKRHIHMHPKDAEYYGVKDKDIVKVIVESGDRRLIFDDVLIRVREDFALEFHVDTDEANAAMLNTGDLVYIVEFEGGSHHHHHH” as the sequence, how does the “soluble on expression in E. coli” value read?
**A.** The value was “soluble”.

**Q.** Which “soluble on expression in E. coli” value does the source give for “MSLIVTAYTQEGIVIGADSCITTNFTQEGKELYKHSHCGNKLFLLNKKIGISTCGDAIINGILLSSLIDQYIWSKKEENITLLQVEIDLKNIVNNQAKGKEYYVIFHICGYENGKRYVSKFDNNDKESHIKDVSERDGCIYDGQVDIVDLFSQDVAYRGTDGLYYDINIERCRYNELSLQETIEYVYFLISTTIQHMRFTYKKDNVGFPIDILVIMPNESLWLQKKELHIPGNY” here?
**A.** The value was “not soluble”.

**Q.** With “MSLKARPTIAEVARRAGVSPATVSRVLNGTARVSPEKVRAVLQAVEELGYAPSPLAQGLATGRSYAVGILLSDFASPFFGPILEALTLELEATPYRPIAVPGHWSLVRELEALEFLKAHRVEALVLLGTALDGEALGELGIPVLAFGQRVEGPKAWSLCLDNQQAAYEATRYLIDRGHTRIVHISSHRGGMDVRDRLLGYRKAMREAGLEARVVYGDLEEEGGYRAAAEAFRRYPDTTAIFAANDQTAFGARLYLYEQGLRVPEDVSLVGFDDIALSAYQIPPLTTVRQPIQDIGIALGRALRAVLAGEVPTLPRLELRLVERASVREVREGHHHHHH” as the sequence, how does the “soluble on expression in E. coli” value read?
**A.** Its value is “soluble”.

**Q.** Which “soluble on expression in E. coli” value does the source give for “MSLKDKFGREIRSLRISITNKCNLQCFYCHREGHDSNNDRYMTPEEIGIIAKTSTKFGVKKIKISGGEPLLRKDVCEIIENIKDERIKDISLTTNGILLENLAEKLKDAGLNRVNVSLDTLNPELYKKITKFGDVERVINGIKKAIDVSLTPLKVNFLAMSINIKDLPDIMEFCRDIGAILQIIEFIPLKEELKGYYYNISPIENEIKEKADKVITRNFMQNRKKYIVDGLEIEFVRPMDNSEFCMHCTRIRLTYDGYLKPCLLRDDNLVDVLTPLRKGENLEPYFIECINRREPYFKIKEGHHHHHH” here?
**A.** Its value is “soluble”.

**Q.** With “MSLKEGKEFEYLFWVGSMGSYDNRSQKIAISFAKLLNHAGVSFAILGNKEKNSGDTPRRLGNEFLFQELAEKNISEFEKNDVKKIVTIDPHAYNLFKNEYPDFGFEGEVYHHTEVLAELVKNGKLRPQHPLHETITFHDSCYLGRYNEVYDPPREILKAIPGVQLVEMERSRETGMCCGAGGGLMWMEEETGNRINVARTEQALAVNPSVISSGCPYCLTMLGDGTKAKEAEDQVKTYDVVELLAQSVLGADLKMGEKQEGHHHHHH” as the sequence, how does the “soluble on expression in E. coli” value read?
**A.** The value was “not soluble”.

**Q.** For “MSLKEYTRPLEQGIDSDKNIFSVLEERVERTPDDNLVEYKNAQGEWAAFTAAEFKNKVVALAKGLIARGVMPGDSVSIIAHTCWQWTALDVAIMSIGALTVPVYETNSPAQVKMIFNDANVKMAFAEDDFQRDKIESVRDQCPDLGDVYVIGLGAIDTIIEYGRAVSDAEFLEREQAVKGSDLATIVYTSGSTGTPKGVELTHANFVFITYSGVNSMPDIAMKPNRRLLLFLPLAHVFARYMQFFCFAGNVSLGLSSNLKTILADFKAFKPTFILAVPRIFEKIYNAASQKAGAGFKGRVFADATQTACDWSHAQQSGGSIPLALNAKHALYNKLVYSSIMEVFGGHVEYAVSGGAPLDSSIAHFFNGVGLSLLEGYGMTETCAPSSVNPTEGYKIGTIGLPLQGVTMGVDEEGELCIKSPAVCAGYHNNPDVTKQQIVDGWLHTGDLGSIDDDGFVSIVGRKKDLIITAGGKNVSPCEMEASIMTSPVVSQCVMIGDRKPFIAAIISLDLAETNLWLESKGAEQVADLDEASKNPIVRAEVERAVNKANELASRAESIRKFEIVPDEFTEENGLVTPSMKARRQAVVEHYRTLIDKVIYVPRKPAAHAEEGHHHHHH”, which “soluble on expression in E. coli” value is on record?
**A.** Its value is “soluble”.
